The nanobody polyreactivity screen of Harvey et al. (2022)

Experiment: yeast display, Sf9 membrane polyspecificity reagent, FACS + sequencing; frameworks hold sequencing errors
How it was run: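 Polyreactivity labels are assigned by the sorting gate from which each nanobody was recovered. The gates were low and high (top ~1%), set on anti-HA fluorescence for expression and streptavidin fluorescence for reagent binding. Before sorting, galactose-induced (36–48 hours) yeast display cells were stained for 1 hour at 4 °C with 10% biotinylated, detergent-solubilized Sf9 membrane reagent.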

Sequence | polyreactivity (PSR sort gate)
QVQLVESGGGLVQAGGSLRLSCAASGRIFGLYAMGWYRQAPGKERELVAAITLSGDGTDYADSVKGRFTISRDNAKNTVYLQMNSLKPEDTPVYYCAKVGQYWWNMDYWGQGTQVTVSS | low polyreactivity
QVQLVESGGGLVQAGGSLRLSCAASGNIFGTYAMGWSRQAPRKERELVATISNDDRTNYADSVKGRFTISRDNAKNTVYFQMNSLKPADTAVYYCAVEYPSIAYRKSSKTFDYWGQGTQVTVSS | low polyreactivity
QDQLVESGGGLVQAGGSLRLSCAASGLTFPYYAMGWYRQAPGKERELVAAITWSGGTTDYADSVKGRFTISRDNAKNTVYLQMNSLKPEDTAVYYCAARFLWKGYYWGQGTQVTVSS | low polyreactivity
QVQLVESGGRLVQAGGSLRLSCAASGFTFSHYAMGWYRQAPGKERELVAAISGRGGSTYYADSVKGRFTISRDNAKNTVYLPMNSLKPEDTAVYYCAARPSTYYTGHDYWGQGTQVTVSS | high polyreactivity
QVQLVESGGGIVQAGGSLRLSCAASGFTISRYAMGWDRPAPGKERELVAAITGSGGSTYYADSVKGRFTISRDIAKNTVYLQMNSLKPEDTAVYYCNTMKHYKREYDYWGQGSQVTVSS | high polyreactivity
QVQLVESGVGLVQAGGSLRLSCAASGSIFYRYAMGWYRQAPGKEREFVARITSSGGSTNYADSVKGRFTISRDNAKNTVYLQMNSLKPEDTAVYYCAKRGWSSYGRYDSWGQGTQVTVSS | high polyreactivity
QVQLVESGGGLVQAGGSLRLSCAASGSIFVRNAMGWYRQAPGKERELVAAISGSGGRTYYADSEKGRFTISRDNAKNTVYLQMNSLKPEDTAVYYCAKEVTYWYGGNYDYWGQGTQVTVSS | high polyreactivity
QVQLVESGGGLVQAGGSLRLSCADSGSIFVYNAMGWYRQAPGKERELVAAITTGGSTNYADSVKGRFTISRDNAKNTVYLQMISLKPEDTAVYYCAVEGYPGRYRDPGDLYYYWGQGTQVTLSS | low polyreactivity
QVQLVESGGGLVQAGGSLRLSCAASGSTFDSYRMGWYRQAPGKERELVASISSRGGSTYYADSVKGRFTISRDNAKNTVSLQMNSLKPEATAVYYCAADWLSWFHGYGMYYWGQGTQVTVSS | low polyreactivity
QVQLVESGGGIVQAGGSLRLSCAASGRIFYDHAMGWYRQAPGKERELVAAITSVRSTNYADSVKGRFTISRDNAKNTVNLQMNSLKPEDTAVYYCARASAWYGTLVGKYTKYDYWGQATQVTVSS | low polyreactivity
QVQLVESGGGLVQAGGRLRLSCAASGFTFRAFTMGWYRQAPGKERELVAAITYSGGRTYYADSVKGRFTISRDNAKNTVYLQMNSLKPEDTAVYYCAKRGWALSEYYYWGQGTQVTVSS | high polyreactivity
QVQLVESGGGLVQAGGSLRLSCAASGRTFRWYAMGWYRQAPGKERELVAAINPGGSTNYADSVKGRFTISRDNAKNSVYLQMNSLKPEDTAVYYCNAAGYDALTHNYYWGQGTQVTVSS | low polyreactivity
QVQLVDSGGGLVQAGGSLRLSCAASGSIFRRNAMGWYRQAPGKERELVAAITRSGSGTSYADSVKGRFTISLDNAKNTVYLQMNSLKPEDTAVYYCNAAYVYGDQARGGYWGQGTQVTVSS | high polyreactivity
QVQLVESGGRLVQAGGSLSLSCAASGRTFHGYAMGWYRQAPGKERELVARINWSDGRTYYADSVKGRFTISRDNAKNTDYLQMNSLKPEDTAVYYCAADKTVSYAPAWYYYWGQGTQVSVSS | low polyreactivity
QVQLVESGGGLVQAGGSLRLSCAASGFTFSPNAMGWYRQAPGKERELVAAIDWSGDRTYYADSVKGRFTISRDNAKNTVYLQMNSLKPEDTAVEYCNVVRRSPGDYSYYYWGQGTQVTVSS | low polyreactivity
QVQLVESGGGLVQAGGSLRLSCAASGSISGLYAKGWYRQAPGKERELVAAITFRDGTTSYADSVKGRFTISRDNAKNTVYLQMNSLKPEDTAVYYCAAVDRDSNSSVPTLVHWGQGTQVTVSS | low polyreactivity
QVQLVESGGGLVQAGGSLRLSCAASGFTFVGNAMGWYRQAAGKEWELVADITGSDGSTYYADSVKGRFTISRDNAKNTVYLQINSLKPEDTAVYYCAASPPYKLVWWRRMDYWGQGTQVTVSS | low polyreactivity
QVQLVESGGGLVQAGGSLRLSCAASGSTFDTYGMGWYIQAPGKERELDASISSRGGSTYYADSVEGRFTISRDNAKNSVYLQMNSLKPDDTAVYYCAADWLSWFHGYGMYYWGQGTKVTVSS | low polyreactivity
QVQLVESGGGLVQAGGSLRLSCAASGSIFVSYAMGWYRQAPGKERELVAAIRRGGTSTYYEDSVKGRFTISRDNAKNTVYLQMNSLKPEDTAVYYCAAPRYFTRYRPLGIYDYWGQGTQVTVSS | high polyreactivity
QVQLVESGGGLVQAGGSLRLSCAASGSTSPVYAMGWYRQAPGKERELVAAISSSGSRTYYADSVKGRFTISRDNAKNTVYLQMNCLKPEDSAVYYCAADWWAWRAYYYWGQGTQVTVSS | high polyreactivity
QVQLVESGGGLVQAGGSLRLSCAASGRTFRVYAMGWYRQAPGKERELVATLTGRGGSTDYADSVKGRFTISRDNAKNTVYLQMNILKPEDTAVYYCAAVGVSRRADPAWAGDYWGQGTQVTVSS | high polyreactivity
QVQLVESGGGLVQAGCSLRLSCAASGSIYPYAMGCYRQAPGKESELVAAINFNGGRTYYAHSVNGRFTISRDNAKNTVYLQMTSLKPDVTAFYYCAARISVYSTLPNDFDYWGQGTQVTVSS | high polyreactivity

Sequence | polyreactivity (PSR sort gate)
QVQLVESGGGLVQAGGSLRLSCAASGFIFRYYAMGWYRQAPGKERELVATISSGGGTHYADSVKGRFTISRDNAKNTVYLQMNSLKPEDTAVYYCNARGYRRLRTRVDYWGQGTQVTVSS | high polyreactivity
QFQLVESGGGLVQAGGSLRLSCAASGRIRDNARGWYRQAPGKERELVAAISSSGGSTYYADSVKGRFTISRDNAKNTVYLQMNSLKPEDTAVYYCNAVRTGKIFGSWGQGTQVTVSS | high polyreactivity
QVQLVESGGGLVQAGGSLRLSCAASGSIFQSYDMGWYRQAPGKERELVAAIRSGDSTYYADSVKGRFTISRDNAKNTVYLQMNSLKPEDTAVYYCNKDEATFLSKDGYWGQGTQVTVSS | low polyreactivity
QVQLVESGGGLVQAGGSRRLSCAASGSISVGFTMGWYRQAPGKEWEFVAVITGTGGRTRYADSVKGRFTISRDNAKNTVYLQMNSLKPEDTAVYYCAAKIRWRGALYDYWGQGSQVTVSS | high polyreactivity
QVQLVESGGGLVQAGGSLRLSCAYSGLTFTWYAMGWYRQAPGKERELVAGISSGTSTNYADSVKGRFSISRDTAKNTVYLQMNSMKAEATAVYYCNAKQLGKFDYWGQGTHVTVSS | low polyreactivity
QVQLVDSGGGLVQAGGSLRLSSAASGYIFVVNAMGWYRPAPGKERELVAAIDWGGGSTYADSVKGRFTISRDNAKNTVYLQMNSLKPEDTAVYYCAADLWPYPTDYWGQGTQVTVSS | low polyreactivity
QVQLVESGGGLVQAGGSLRLICAASGIIFRYYAMGWYRQAPGKERELVASISRGGSTYYADSVKGRFTISRDNAKNTVYLQMNSLKPEDTAVYYCAADVYPVYLYGYEYCGQGTQVTVSS | high polyreactivity
QVQLVESGGGLVQAGGSLRLSCPASGSTFWYYDMGWSRQAPGKERELVAAISGSGGRTYYADSVKGRFTISRDNAKNTVYLQMNSLKPEDTAVYYCAADYYWSADFKYNDWGQGTQVTVAS | low polyreactivity
QVQLVESGGGLVQAGGSLRLSCAASGFTFARYAMGWYRQAPGKERELVAAISWSGARTYYADSVKGRFTISRDNAKNTVYLQMNSLKPEDTAVYYCNAVSGSSNFDYWGQGTQVTVSS | high polyreactivity
QVQLVESGGGLVQAGGSLRLSCAASGSTFSIYAMGWYRQAPGKERELVAAISSDSTYYADSVKGRFTISRDNAKNTVYLQMNSLKPEDTAVYYCAADPYFPKYYYWGQGTQVTVSS | low polyreactivity
QVQLVESGGGLVQAGGSLRLSCADSGSTFTSNAMRWYRQAPGKEREFVAAINWGGSITYYADSVKGRFTISRDNAKNTVYLQMNSLKPEDTAVYYCAAETYYDTYYPEGDYWGQGTQVTVSS | low polyreactivity
QVQLVESGGGLVQAGGSLRISCAASGSIFSDNGMGWYRQAPGKERELVAAITIGGSTNYADSVKGRFTISRDNAKNTVYLLMKRLNPEDTAVYYCNTDFFYYGYNFPYFDYDYWGQGTQVTVSA | low polyreactivity
QVQLVESGGGLVQAGGSLRLSCAASGSNFETYVMGWYRQAPGKERELFAAINSGGSTNYADSVKGRFTISRDNAKNTVYLQMNSLKPEETAVYYCNADWFTPAQPWYRYFIRYDYWGQGSQVTVSS | low polyreactivity
QVQLVESGGGLVQAGGSLRLSCAASGRILWNAMGWYRQAPGKERELVAGITYSGGSTYYADSVKGRFTISRDNAKNTVYLQMNSLKPEDTAVYYCNAGVGARESDYWGQGTQVTVSS | low polyreactivity
QVQHVESGGGLVQAGGSLRLSCAASGRIFSGYAMGWYRQAPGKERELVAAINRSGGSTYYADSVKGRFTISRDNAKNTVYLQMNSLKPDDTAVYYCAADKSDVYGYFRQSESYGYWGQGTQVTVSS | low polyreactivity
QVQLVESGGGLVQAGGSLRLSCAASGSIFHPYGMGWYRQAPGKVRELVAAMTSSGGDTYYADSVKGRFTISRDNAKNTVYLQMNSLKPEDTAVYYCAATGLPGYYAYDYWGQGTQVTVSS | low polyreactivity
QVQLVESGGGLVQAGGSLRLSCAASGSIFKYYAMGWYRQAPGKERELVAAIDWSGGNTYADSVKGRFTISRDNAKNTVYLQMNSLKPEDTAVYYCAADAFAVYRITSYNGSDSWGQGTQVTVSS | high polyreactivity
QVQLVESGGGLVQAGGSLRLSCAASGSTFTSYAKGCYRQAPGKERELVAAISRRGTSTYYADSVKGRFTISRDNAKHTVYLQMNSLKPEDTAVYYCAADGYYCEYYYWGQGTQVTVSS | high polyreactivity
QVQLVESGGGLVQAGGSLRLSSAASGRIFGFNAMGWYRPAPGKERELVAAITWGVGSTYYADSVKGRFTISRDNAKNTVYLQMNSLKPEDTAVYYCAAVSYAAVYGFDYWGQGTQVTVSS | high polyreactivity
QVQLVESGGGLVQAGGSLRLSCAASGSTFTTYGMGWYRQAPGKERELVAGITFRGGSTYYADSVKGRFTISRDNAKNTVYLQMNSLKPEDTAVYYCAAERWRWYYSWTMDYWGQGTQVTVSS | high polyreactivity
QVQLVESGGGLVQAGGSLRLSCPASGLTFAYYTMGWYRQSPGKERELVADISRSGGSTYYADSVKGRFTISRDNAKNTVYLQMNSLKPEDSAVYYCAARANVYTKKRDYWGQGTQVTVSW | high polyreactivity
